Reference: patent publication US20220363763A1 (ABL BIO, published 2022)
Blank lines part the entries; values can stand above or below the binder they belong to.

Columns and labels:
[1] = biological target: T1, human LAG3-His protein (Sinobio, 16498-H08H) (human, UniProt P18627 23-450); assay: ELISA on coated human LAG3-His, panel LAG3
T1 construct: also called human LAG3 protein; not shown: His tag
T1 sequence (looked up): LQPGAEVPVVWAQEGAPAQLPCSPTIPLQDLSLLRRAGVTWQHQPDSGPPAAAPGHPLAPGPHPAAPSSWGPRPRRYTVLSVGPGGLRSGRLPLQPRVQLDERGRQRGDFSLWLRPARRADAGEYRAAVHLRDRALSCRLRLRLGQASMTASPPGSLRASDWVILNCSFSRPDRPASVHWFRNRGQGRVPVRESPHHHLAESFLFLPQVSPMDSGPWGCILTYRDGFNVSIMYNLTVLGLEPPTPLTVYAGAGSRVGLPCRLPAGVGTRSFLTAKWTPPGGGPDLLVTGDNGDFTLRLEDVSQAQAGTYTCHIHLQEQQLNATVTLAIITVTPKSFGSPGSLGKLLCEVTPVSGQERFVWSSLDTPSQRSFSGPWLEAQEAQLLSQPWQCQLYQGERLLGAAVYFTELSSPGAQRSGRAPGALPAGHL
Procedure, shortened: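 Bispecific antibodies were tested by ELISA on plates coated overnight at 4° C with human LAG3-His protein at 0.5 μg/ml in PBS (100 μl/well), then blocked with 5% BSA. Four-fold antibody dilutions starting from 100 nM were incubated for 1-2 hours at RT. EC50 was read off the binding curve.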

[2] = biological target: T2, human PD-L1-Fc protein (human, UniProt Q9NZQ7 19-239); assay: ELISA on coated human PD-L1-Fc
T2 construct: Coated on ELISA plates; also called huPD-L1; not shown: Fc part
Experimental: To evaluate the antigen binding activity, the antibodies were subjected to ELISA test. Briefly, microtiter plates were coated with human PD-L1-Fc protein at 2 μg/ml in PBS, 100 μl/well at 4° C. overnight, then blocked with 100 μl/well of 5% BSA. 4-fold dilutions of humanized antibodies starting from 10 μg/ml were added to each well and incubated for 1-2 hours at RT. The plates were washed with PBS/Tween and then incubate with […] antibody conjugated with Horse Radish Peroxidase (HRP) for 1 hour at RT. After washing, the plates were developed with TMB substrate and analyzed by spectrophotometer at OD 450-630 nm.

[3] = biological target: T3, human PD-L1 (construct not stated) (human, UniProt Q9NZQ7 19-239, limits assumed); assay: SPR Biacore, affinity ranking
T3 construct: also called B7-H1 (PD-L1); PD-L1 protein

[4] = biological target: T4, human PD-L1 expressed on mammalian cells (human, UniProt Q9NZQ7 19-290); assay: cell-based binding on Raji-PDL1 cells (FACS by paragraph 328; the y axis of the sheet is labelled IL2 (ng/ml)); EC50 table has no unit, x axis Concentration (nM)
T4 construct: whole, on cells; also called PDL1-CHOK1 cells; PDL1-Raji cells
Experimental: To evaluate the antigen binding property, the antibodies were analyzed for its binding to mammalian expressed PD-L1 by FACS. Briefly, PDL1-Raji cells were firstly incubated with 5-fold serious diluted humanized antibodies starting at 2 µg/ml at RT for 1 hour. After wash by FACS buffer (PBS with 2% FBS), the Alexa 488-anti-human IgG antibody was added to each well and incubated at RT for 1 hour. The MFI of Alexa 488 was evaluated by FACSAriaIII.

[5] = biological target: T5, human LAG3 on cells (human, UniProt P18627 23-525); assay: flow cytometry (MFI) on activated CD4 T cells, lower panel; EC50 table has no unit, x axis Concentration (nM); Table 31 of the text prints the rounded 0.33
T5 construct: whole, on cells; also called Jurkat-LAG3
T5 sequence (looked up): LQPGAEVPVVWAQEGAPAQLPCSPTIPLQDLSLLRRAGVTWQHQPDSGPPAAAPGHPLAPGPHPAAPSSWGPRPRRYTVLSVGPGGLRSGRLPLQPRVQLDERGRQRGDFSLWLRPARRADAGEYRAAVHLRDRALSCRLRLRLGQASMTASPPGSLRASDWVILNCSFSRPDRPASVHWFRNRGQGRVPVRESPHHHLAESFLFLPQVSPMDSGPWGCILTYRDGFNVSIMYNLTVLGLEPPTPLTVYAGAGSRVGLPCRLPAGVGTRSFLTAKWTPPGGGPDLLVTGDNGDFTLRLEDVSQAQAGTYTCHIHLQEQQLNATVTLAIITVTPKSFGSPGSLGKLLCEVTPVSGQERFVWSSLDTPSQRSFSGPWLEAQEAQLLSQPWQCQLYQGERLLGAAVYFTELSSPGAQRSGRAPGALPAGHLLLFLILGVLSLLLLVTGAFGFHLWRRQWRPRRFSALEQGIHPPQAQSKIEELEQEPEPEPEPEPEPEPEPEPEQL
Experimental: (§1) To further confirm affinity matured anti-LAG-3 antibodies could bind to cell-derived human LAG3, both inducible hLAG3 expressed Jurkat cells and activated PBMCs were used to test the binding capability of B3807b and B3810. In brief, Jurkat cells were resuspended in FACS buffer. Anti-LAG3 antibodies and isotype control were 4-fold serially diluted in FACS buffer with a dose ranging from 20 nM to 30 pM. The serially diluted antibodies were added to the cell suspension and incubated for 30 minutes on ice. Then after removal of unbound antibodies, cells were stained with anti-human IgG conjugated with Alexa Fluor 633 (Thermo, A21091). Fluorescence measurement was acquired on FACSCelesta flow cytometer and analyzed in Flowjo to determine the mean fluorescence intensities (MFI). To test anti-LAG3 antibodies' ability of binding to native human LAG3, PBMCs from health donor were stimulated with anti-CD3 (BD, 555336) and anti-CD28 (BD, 555725) both at a concentration of 1 ug/ml. Following 3 days' stimulation, cells were harvested and incubated with anti-LAG3 antibodies for 30 mins on ice. The cells were stained with anti-human CD4 and anti-human IgG. Analysis of antibodies binding to CD4+ cells were carried out on FACSCelesta flow cytometry. […] FIG. 31 is a graph showing the binding curve of anti-LAG3 antibodies.

[6] = biological target: T6, recombinant his-tag human LAG3-ECD protein (human, UniProt P18627 23-450); assay: SPR Biacore T200, capture method as Example 2.7
T6 construct: extracellular domain; not shown: his tag
T6 sequence (looked up): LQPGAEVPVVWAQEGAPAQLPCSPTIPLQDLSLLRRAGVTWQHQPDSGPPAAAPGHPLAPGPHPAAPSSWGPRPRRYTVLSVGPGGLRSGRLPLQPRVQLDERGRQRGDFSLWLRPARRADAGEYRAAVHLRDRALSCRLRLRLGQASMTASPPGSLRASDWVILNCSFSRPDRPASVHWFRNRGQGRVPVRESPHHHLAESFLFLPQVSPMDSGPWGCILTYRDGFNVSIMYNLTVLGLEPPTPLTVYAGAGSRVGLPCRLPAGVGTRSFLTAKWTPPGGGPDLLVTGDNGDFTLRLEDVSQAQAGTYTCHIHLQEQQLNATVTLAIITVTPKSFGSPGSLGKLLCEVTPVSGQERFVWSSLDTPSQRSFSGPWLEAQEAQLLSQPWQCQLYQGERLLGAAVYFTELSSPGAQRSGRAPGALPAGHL

[7] = biological target: T7, recombinant human LAG-3-ECD-human IgG1 fusion protein (human, UniProt P18627 23-450, biotin-labeled in the MHC class II blocking assays); assay: ELISA as Example 2.2, coated human LAG3 ECD-Fc
T7 construct: extracellular domain; also called LAG-3-huFc; LAG-3-ECD-huFc; not shown: human IgG1 Fc
T7 sequence (looked up): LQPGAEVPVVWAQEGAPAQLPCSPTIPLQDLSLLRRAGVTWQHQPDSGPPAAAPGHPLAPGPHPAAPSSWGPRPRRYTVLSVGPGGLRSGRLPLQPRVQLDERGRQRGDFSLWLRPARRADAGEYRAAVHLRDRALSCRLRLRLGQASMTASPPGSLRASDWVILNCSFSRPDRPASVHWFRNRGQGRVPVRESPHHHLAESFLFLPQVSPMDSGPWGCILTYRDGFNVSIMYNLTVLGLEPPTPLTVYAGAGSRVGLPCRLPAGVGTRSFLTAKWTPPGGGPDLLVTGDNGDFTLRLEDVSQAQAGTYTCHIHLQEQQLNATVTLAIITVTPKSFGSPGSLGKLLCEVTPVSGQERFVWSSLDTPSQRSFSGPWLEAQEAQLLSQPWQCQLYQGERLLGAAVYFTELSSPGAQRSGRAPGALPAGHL
Experimental: To evaluate the capability of the anti-LAG-3 antibodies to bind to human, rat, and mouse LAG3 the antibodies identified in Example 2.1 were evaluated for their binding property through ELISA. The human, rat and mouse LAG3 ECD-Fc protein were coated to ELISA plate at 1 μg/ml with 100 μl/well. Antibodies from Example 1 were serially diluted with ELISA diluent buffer. […] The resulting plates were washed and then labeled with anti-human IgG(Fab)-HRP antibody. The S31 can only bind to human LAG3. The S27 and T99 can bind to human LAG3 and rat/mouse LAG3 with lower potency. The S119 antibody can bind to human, rat and mouse LAG3 at high potency (FIGS. 22A-22D).

[8] = biological target: T5, human LAG3 on cells; assay: flow cytometry (MFI) on Jurkat-LAG3 cells, upper panel; EC50 table has no unit, x axis Concentration (nM); Table 31 of the text prints the rounded 0.4
Experimental: as §1

[9] = biological target: T6, recombinant his-tag human LAG3-ECD …; assay: Biacore, antibody captured, His-tag human LAG3-ECD injected (procedure of Example 2.16(B)); column ka (1/Ms)
Experimental: (§2) The binding of B3807 to recombinant His-tag human LAG3-ECD protein was examined by Biacore T200 using a capture method. B3807 was captured using protein A which was immobilized on CM5 sensor chip. Serial concentrations of his-tag human LAG3-ECD protein (0-12 nM) were injected over capture antibodies at the flow rate of 30 μl/min. The dissociation phase was 900 s or 550 s.
(§3) B3807 was used in the following examples for further testing and preparing bispecific antibodies.

[10] = biological target: T6, recombinant his-tag human LAG3-ECD …; assay: Biacore, antibody captured, His-tag human LAG3-ECD injected (procedure of Example 2.16(B)); column kd(1/s)
Experimental: as §2, §3

[11] = biological target: T5, human LAG3 on cells; assay: flow cytometry on activated CD4 T cells
Experimental: as §1

[12] = biological target: T5, human LAG3 on cells; assay: flow cytometry on hLAG3-expressing Jurkat cells
Experimental: as §1

[13] = biological target: T6, recombinant his-tag human LAG3-ECD …; assay: Biacore, antibody captured, His-tag human LAG3-ECD injected (procedure of Example 2.16(B))
Experimental: as §2, §3

[14] = biological target: T5, human LAG3 on cells; assay: flow cytometry (MFI) on activated CD4 T cells, lower panel; EC50 table has no unit, x axis Concentration (nM); Table 31 of the text prints the rounded 0.39
Experimental: as §1

[15] = biological target: T5, human LAG3 on cells; assay: flow cytometry (MFI) on Jurkat-LAG3 cells, upper panel; EC50 table has no unit, x axis Concentration (nM); Table 31 of the text prints the rounded 0.5
Experimental: as §1

T3 sequence (Q9NZQ7 19-239 limits assumed): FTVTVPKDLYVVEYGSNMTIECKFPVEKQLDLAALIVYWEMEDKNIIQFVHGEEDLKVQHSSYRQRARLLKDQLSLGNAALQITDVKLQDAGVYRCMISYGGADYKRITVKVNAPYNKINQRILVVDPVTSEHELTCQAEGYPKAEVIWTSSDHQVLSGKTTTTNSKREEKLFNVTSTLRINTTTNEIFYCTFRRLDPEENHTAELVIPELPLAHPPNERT
T4 sequence (Q9NZQ7 19-290): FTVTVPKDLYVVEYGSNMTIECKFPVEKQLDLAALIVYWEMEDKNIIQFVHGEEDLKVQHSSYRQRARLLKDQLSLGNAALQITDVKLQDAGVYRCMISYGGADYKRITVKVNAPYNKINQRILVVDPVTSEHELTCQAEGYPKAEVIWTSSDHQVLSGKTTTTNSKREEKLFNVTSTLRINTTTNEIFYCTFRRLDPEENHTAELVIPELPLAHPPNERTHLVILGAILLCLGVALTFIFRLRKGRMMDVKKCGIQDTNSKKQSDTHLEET
T2 sequence (Q9NZQ7 19-239 limits assumed): as the sequence (Q9NZQ7 19-239 limits assumed) above

B1: 147(H3807)xH12 (bispecific antibody, human IgG4 S228P, kappa)
heavy: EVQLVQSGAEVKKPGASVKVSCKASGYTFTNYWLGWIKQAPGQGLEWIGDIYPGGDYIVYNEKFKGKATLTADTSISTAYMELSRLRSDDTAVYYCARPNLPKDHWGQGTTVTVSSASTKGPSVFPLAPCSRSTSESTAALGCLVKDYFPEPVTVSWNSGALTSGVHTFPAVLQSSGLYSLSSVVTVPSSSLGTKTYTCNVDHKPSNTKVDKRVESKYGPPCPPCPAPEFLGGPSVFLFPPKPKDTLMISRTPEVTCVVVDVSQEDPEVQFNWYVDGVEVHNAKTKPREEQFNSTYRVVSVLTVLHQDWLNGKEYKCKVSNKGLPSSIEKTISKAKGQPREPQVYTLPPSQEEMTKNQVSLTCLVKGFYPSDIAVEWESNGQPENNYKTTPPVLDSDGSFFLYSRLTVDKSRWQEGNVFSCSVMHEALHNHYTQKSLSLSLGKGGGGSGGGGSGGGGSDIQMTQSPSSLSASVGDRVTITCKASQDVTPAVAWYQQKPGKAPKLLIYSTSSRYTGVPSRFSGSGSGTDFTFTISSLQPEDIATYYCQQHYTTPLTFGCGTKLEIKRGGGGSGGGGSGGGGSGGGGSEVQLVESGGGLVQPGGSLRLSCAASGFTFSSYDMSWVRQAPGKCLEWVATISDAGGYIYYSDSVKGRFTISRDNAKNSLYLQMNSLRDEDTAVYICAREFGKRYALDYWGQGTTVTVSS
light: DIVMTQSPLSLPVTPGEPASISCRSSKSLLHSQGITYLYWYLQKPGQSPQLLIYQVSNLASGVPDRFSGSGSGTDFTLKISRVEAEDVGVYYCAQYLELPWTFGGGTKVEIKRTVAAPSVFIFPPSDEQLKSGTASVVCLLNNFYPREAKVQWKVDNALQSGNSQESVTEQDSKDSTYSLSSTLTLSKADYEKHKVYACEVTHQGLSSPVTKSFNRGEC
EC50 (read off the curve) [1]: ~0.4 nM

B2: B6 (antibody, V domains shown)
VH: EVQLVESGGGLVQPGGSLRLSCAASGFTFSSYDMSWVRQAPGKSLEWVATISDAGGYIYYRDSVKGRFTISRDNAKNSLYLQMNSLRDEDTAVYICARELPWRYALDYWGQGTTVTVSS
VL: DIQMTQSPSSLSASVGDRVTITCKASQDVTPAVAWYQQKPGKAPKLLIYSTSSRYTGVPSRFSGSGSGTDFTFTISSLQPEDIATYYCQQHYTTPLTFGQGTKLEIK
notes: also called B6 monoclonal antibody
EC50 (read off the curve) [2]: ~0.2 µg/mL
Kd [3]: 1.02 nM
koff [3]: 0.000246 s⁻¹
kon [3]: 242000 M⁻¹ s⁻¹
EC50 [4]: 1.2 nM

Next, values leading:

EC50 [5]: 0.333 nM
Kd [6]: 0.51 nM
koff [6]: 0.002 s⁻¹
kon [6]: 4e+06 M⁻¹ s⁻¹
EC50 [7]: 0.41 nM
EC50 [8]: 0.39 nM
kon [9]: 3.46e+06 M⁻¹ s⁻¹
koff [10]: 0.00334 s⁻¹
EC50 [11]: 0.33 nM
EC50 [12]: 0.4 nM
Kd [13]: 0.968 nM
B3: 147H 3807b (antibody, V domains shown)
VH: EVQLVQSGAEVKKPGASVKVSCKASGYTFTNYWLGWIKQAPGQGLEWIGDIYPGGDYIVYNEKFKGKATLTADTSISTAYMELSRLRSDDTAVYYCARPNLPKDHWGQGTTVTVSS
VL: DIVMTQSPLSLPVTPGEPASISCRSSKSLLHSNAITYLYWYLQKPGQSPQLLIYQVSNLASGVPDRFSGSGSGTDFTLKISRVEAEDVGVYYCAQYLELPWTFGGGTKVEIK
notes: also called B3807b

Kd [6]: 0.41 nM
koff [6]: 0.0019 s⁻¹
kon [6]: 4.7e+06 M⁻¹ s⁻¹
EC50 [7]: 0.49 nM
EC50 [11]: 0.39 nM
EC50 [14]: 0.391 nM
EC50 [12]: 0.5 nM
EC50 [15]: 0.492 nM
B4: 147H 3810 (antibody, V domains shown)
VH: EVQLVQSGAEVKKPGASVKVSCKASGYLFTNYWLGWIKQAPGQGLEWIGDIYPGGDYIVYNEKFKGKATLTADTSISTAYMELSRLRSDDTAVYYCARPNLPKDHWGQGTTVTVSS
VL: DIVMTQSPLSLPVTPGEPASISCRSSKSLLHSNAITYLYWYLQKPGQSPQLLIYQVSNLATGVPDRFSGSGSGTDFTLKISRVEAEDVGVYYCAQYLELPWTFGGGTKVEIK
notes: also called B3810
